This note sets out measurements from the supplement of paper PMC10567573.

The labels stand for the following.
B1: LOXL2 (parent)
chain: RLLRFSSQIHNNGQSDFRPKNGRH
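Note: lentivirally expressed fusions sorted by FACS into six bins by GFP to DsRed ratio, PSI derived from sequencing read proportions per bin multiplied by bin number.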

The variants in the data set derive from B1. The experiment in a line: protein stability index of a GFP-peptide fusion (GPS, HEK-293T) (PSI 1-6); higher = more stable. Conditions: c terminus: a fixed tail appended.
For the variant RLLRFSSQIHNNGQSDFLPKNGRH, the protein stability index was found to be 2.31.

Consider RLLRFSSQIHNNGQSDFDPKNGRH, for which the protein stability index was found to be 3.29.

On to RLLRFSSQIHNNGQSDFTPKNGRH, for which the protein stability index came to 3.29.

Turning to RLLRFSSQIHNNGQSDFCPKNGRH, the protein stability index is 2.42.

In the case of RLLRFSSQIHNNGQSDFVPKNGRH, the protein stability index was 3.04.

Turning to RLLRFSSQIHNNGQSDFFPKNGRH, the protein stability index worked out at 2.6.

In the case of RLLRFSSQIHNNGQSDFGPKNGRH, the protein stability index was 2.33.

Take RLLRFSSQIHNNGQSDFQPKNGRH: the protein stability index was 2.99.

With RLLRFSSQIHNNGQSDFSPKNGRH, the protein stability index amounted to 3.05.

Consider RLLRFSSQIHNNGQSDFEPKNGRH, for which the protein stability index worked out at 3.27.

Turning to RLLRFSSQIHNNGQSDFIPKNGRH, the protein stability index amounted to 2.61.

Regarding RLLRFSSQIHNNGQSDFAPKNGRH, the protein stability index was 3.21.

On to RLLRFSSQIHNNGQSDFMPKNGRH, for which the protein stability index amounted to 2.67.

As for RLLRFSSQIHNNGQSDFPPKNGRH, the protein stability index is 2.83.

Take RLLRFSSQIHNNGQSDFHPKNGRH: the protein stability index stood at 2.45.

Turning to RLLRFSSQIHNNGQSDFKPKNGRH, the protein stability index came to 3.23.

For the variant RLLRFSSQIHNNGQSDFYPKNGRH, the protein stability index was 2.59.

On to RLLRFSSQIHNNGQSDFWPKNGRH, for which the protein stability index turned out to be 3.03.

Take RLLRFSSQIHNNGQSDFNPKNGRH: the protein stability index came to 2.87.

As for RLLRFSSQIDNNGQSDFRPKNGRH, the protein stability index was 3.68.

Regarding RLLRFSSQITNNGQSDFRPKNGRH, the protein stability index amounted to 2.89.

RLLRFSSQISNNGQSDFRPKNGRH: the protein stability index worked out at 2.71.

Take RLLRFSSQIFNNGQSDFRPKNGRH: the protein stability index amounted to 2.13.

Turning to RLLRFSSQIENNGQSDFRPKNGRH, the protein stability index is 3.43.

With RLLRFSSQIYNNGQSDFRPKNGRH, the protein stability index came to 1.87.

For RLLRFSSQIINNGQSDFRPKNGRH, the protein stability index stood at 2.24.

Consider RLLRFSSQIANNGQSDFRPKNGRH, for which the protein stability index amounted to 3.28.

RLLRFSSQIGNNGQSDFRPKNGRH: the protein stability index came to 2.57.

RLLRFSSQIWNNGQSDFRPKNGRH: the protein stability index stood at 2.13.

For RLLRFSSQILNNGQSDFRPKNGRH, the protein stability index is 2.14.

With RLLRFSSQICNNGQSDFRPKNGRH, the protein stability index is 2.46.

Regarding RLLRFSSQIRNNGQSDFRPKNGRH, the protein stability index came out at 2.36.

In the case of RLLRFSSQIMNNGQSDFRPKNGRH, the protein stability index came to 2.47.

With RLLRFSSQIPNNGQSDFRPKNGRH, the protein stability index is 3.12.

For RLLRFSSQINNNGQSDFRPKNGRH, the protein stability index came to 3.06.

Regarding RLLRFSSQIVNNGQSDFRPKNGRH, the protein stability index was determined as 2.68.

For RLLRFSSQIKNNGQSDFRPKNGRH, the protein stability index amounted to 2.8.

Take RLLRFSSQIQNNGQSDFRPKNGRH: the protein stability index was 2.83.

Take RLLRFSSQIHGNGQSDFRPKNGRH: the protein stability index stood at 2.23.

For the variant RLLRFSSQIHVNGQSDFRPKNGRH, the protein stability index was 4.07.

For the variant RLLRFSSQIHPNGQSDFRPKNGRH, the protein stability index came to 2.65.

As for RLLRFSSQIHLNGQSDFRPKNGRH, the protein stability index was 2.69.

Regarding RLLRFSSQIHTNGQSDFRPKNGRH, the protein stability index was 2.7.

Consider RLLRFSSQIHYNGQSDFRPKNGRH, for which the protein stability index stood at 2.17.

For the variant RLLRFSSQIHDNGQSDFRPKNGRH, the protein stability index was determined as 3.29.

In the case of RLLRFSSQIHQNGQSDFRPKNGRH, the protein stability index is 2.46.

In the case of RLLRFSSQIHANGQSDFRPKNGRH, the protein stability index came out at 2.84.

With RLLRFSSQIHINGQSDFRPKNGRH, the protein stability index stood at 2.39.

RLLRFSSQIHFNGQSDFRPKNGRH: the protein stability index was determined as 2.23.

For the variant RLLRFSSQIHSNGQSDFRPKNGRH, the protein stability index turned out to be 2.54.

For the variant RLLRFSSQIHKNGQSDFRPKNGRH, the protein stability index was 2.29.

RLLRFSSQIHWNGQSDFRPKNGRH: the protein stability index came to 2.51.

Consider RLLRFSSQIHCNGQSDFRPKNGRH, for which the protein stability index is 2.17.

Regarding RLLRFSSQIHRNGQSDFRPKNGRH, the protein stability index is 2.2.

With RLLRFSSQIHHNGQSDFRPKNGRH, the protein stability index is 2.8.

As to RLLRFSSQIHMNGQSDFRPKNGRH, the protein stability index was 2.81.

RLLRFSSQIHENGQSDFRPKNGRH: the protein stability index was determined as 2.86.

RLLRFSSQIHNNGQSDRRPKNGRH: the protein stability index was determined as 3.06.

As to RLLRFSSQIHNNGQSDSRPKNGRH, the protein stability index worked out at 3.15.

As to RLLRFSSQIHNNGQSDMRPKNGRH, the protein stability index stood at 3.06.

Turning to RLLRFSSQIHNNGQSDCRPKNGRH, the protein stability index came to 2.8.

Regarding RLLRFSSQIHNNGQSDHRPKNGRH, the protein stability index worked out at 3.52.

For the variant RLLRFSSQIHNNGQSDYRPKNGRH, the protein stability index came to 2.69.

As to RLLRFSSQIHNNGQSDIRPKNGRH, the protein stability index is 3.38.

In the case of RLLRFSSQIHNNGQSDWRPKNGRH, the protein stability index is 2.32.

In the case of RLLRFSSQIHNNGQSDERPKNGRH, the protein stability index is 3.67.

With RLLRFSSQIHNNGQSDPRPKNGRH, the protein stability index worked out at 3.45.

As for RLLRFSSQIHNNGQSDNRPKNGRH, the protein stability index was determined as 3.42.

Turning to RLLRFSSQIHNNGQSDLRPKNGRH, the protein stability index is 2.75.

Regarding RLLRFSSQIHNNGQSDKRPKNGRH, the protein stability index was 3.34.

Regarding RLLRFSSQIHNNGQSDQRPKNGRH, the protein stability index was 3.42.

Turning to RLLRFSSQIHNNGQSDVRPKNGRH, the protein stability index worked out at 2.95.

On to RLLRFSSQIHNNGQSDGRPKNGRH, for which the protein stability index is 3.04.

As for RLLRFSSQIHNNGQSDDRPKNGRH, the protein stability index came out at 3.75.

On to RLLRFSSQIHNNGQSDTRPKNGRH, for which the protein stability index came to 3.31.

With RLLRFSSQIHNNGQSDARPKNGRH, the protein stability index amounted to 2.95.

As to RLLRFSSQIHNNNQSDFRPKNGRH, the protein stability index was found to be 2.94.

Turning to RLLRFSSQIHNNIQSDFRPKNGRH, the protein stability index was found to be 2.31.

Regarding RLLRFSSQIHNNHQSDFRPKNGRH, the protein stability index amounted to 3.06.

As for RLLRFSSQIHNNPQSDFRPKNGRH, the protein stability index was determined as 2.62.

Consider RLLRFSSQIHNNWQSDFRPKNGRH, for which the protein stability index is 2.56.

RLLRFSSQIHNNDQSDFRPKNGRH: the protein stability index amounted to 3.19.

On to RLLRFSSQIHNNQQSDFRPKNGRH, for which the protein stability index is 3.2.

Take RLLRFSSQIHNNLQSDFRPKNGRH: the protein stability index was found to be 2.39.

With RLLRFSSQIHNNCQSDFRPKNGRH, the protein stability index worked out at 1.97.

As to RLLRFSSQIHNNTQSDFRPKNGRH, the protein stability index is 2.74.

As for RLLRFSSQIHNNKQSDFRPKNGRH, the protein stability index was 2.15.

For the variant RLLRFSSQIHNNAQSDFRPKNGRH, the protein stability index is 2.48.

Take RLLRFSSQIHNNSQSDFRPKNGRH: the protein stability index came to 2.46.

In the case of RLLRFSSQIHNNFQSDFRPKNGRH, the protein stability index was 2.25.

In the case of RLLRFSSQIHNNMQSDFRPKNGRH, the protein stability index was determined as 2.81.

Consider RLLRFSSQIHNNYQSDFRPKNGRH, for which the protein stability index is 2.09.

RLLRFSSQIHNNRQSDFRPKNGRH: the protein stability index turned out to be 3.19.

As for RLLRFSSQIHNNVQSDFRPKNGRH, the protein stability index is 2.24.
